Residue numbers refer to the chain shown, from its start. Names and notes keep the numbering of the source. Values joined by “and” are separate entries in the source; they are usually repeats but may differ in a detail not shown here. Equal entries are not always repeated.
B1: PG-C611A (protein)
chain: METPSQRRATRSGAQASSTPLSPTRITRLQEKEDLQELNDRLAVYIDRVRSLETENAGLRLRITESEEVVSREVSGIKAAYEAELGDARKTLDSVAKERARLQLELSKVREEFKELKARNTKKEGDLIAAQARLKDLEALLNSKEAALSTALSEKRTLEGELHDLRGQVAKLEAALGEAKKQLQDEMLRRVDAENRLQTMKEELDFQKNIYSEELRETKRRHETRLVEIDNGKQREFESRLADALQELRAQHEDQVEQYKKELEKTYSAKLDNARQSAERNSNLVGAAHEELQQSRIRIDSLSAQLSQLQKQLAAKEAKLRDLEDSLARERDTSRRLLAEKEREMAEMRARMQQQLDEYQELLDIKLALDMEIHAYRKLLEGEEERLRLSPSPTSQRSRGRASSHSSQTQGGGSVTKKRKLESTESRSSFSQHARTSGRVAVEEVDEEGKFVRLRNKSNEDQSMGNWQIKRQNGDDPLLTYRFPPKFTLKAGQVVTIWAAGAGATHSPPTDLVWKAQNTWGCGNSLRTALINSTGEEVAMRKLVRSVTVVEDDEDEDGDDLLHHHHGSHCSSSGDPAEYNLRSRTVLCGTCGQPADKASASGSGAQSPQNASIM
modifications: left off: GFP, end not stated, kept
B2: WT-LA (protein)
chain: METPSQRRATRSGAQASSTPLSPTRITRLQEKEDLQELNDRLAVYIDRVRSLETENAGLRLRITESEEVVSREVSGIKAAYEAELGDARKTLDSVAKERARLQLELSKVREEFKELKARNTKKEGDLIAAQARLKDLEALLNSKEAALSTALSEKRTLEGELHDLRGQVAKLEAALGEAKKQLQDEMLRRVDAENRLQTMKEELDFQKNIYSEELRETKRRHETRLVEIDNGKQREFESRLADALQELRAQHEDQVEQYKKELEKTYSAKLDNARQSAERNSNLVGAAHEELQQSRIRIDSLSAQLSQLQKQLAAKEAKLRDLEDSLARERDTSRRLLAEKEREMAEMRARMQQQLDEYQELLDIKLALDMEIHAYRKLLEGEEERLRLSPSPTSQRSRGRASSHSSQTQGGGSVTKKRKLESTESRSSFSQHARTSGRVAVEEVDEEGKFVRLRNKSNEDQSMGNWQIKRQNGDDPLLTYRFPPKFTLKAGQVVTIWAAGAGATHSPPTDLVWKAQNTWGCGNSLRTALINSTGEEVAMRKLVRSVTVVEDDEDEDGDDLLHHHHGSHCSSSGDPAEYNLRSRTVLCGTCGQPADKASASGSGAQVGGPISSGSSASSVTVTRSYRSVGGSGGGSFGDNLVTRSY
modifications: left off: GFP, end not stated, state not stated
B3: LA (protein, UniProt P02545 1-661, looked up)
Prelamin-A/C: METPSQRRATRSGAQASSTPLSPTRITRLQEKEDLQELNDRLAVYIDRVRSLETENAGLRLRITESEEVVSREVSGIKAAYEAELGDARKTLDSVAKERARLQLELSKVREEFKELKARNTKKEGDLIAAQARLKDLEALLNSKEAALSTALSEKRTLEGELHDLRGQVAKLEAALGEAKKQLQDEMLRRVDAENRLQTMKEELDFQKNIYSEELRETKRRHETRLVEIDNGKQREFESRLADALQELRAQHEDQVEQYKKELEKTYSAKLDNARQSAERNSNLVGAAHEELQQSRIRIDSLSAQLSQLQKQLAAKEAKLRDLEDSLARERDTSRRLLAEKEREMAEMRARMQQQLDEYQELLDIKLALDMEIHAYRKLLEGEEERLRLSPSPTSQRSRGRASSHSSQTQGGGSVTKKRKLESTESRSSFSQHARTSGRVAVEEVDEEGKFVRLRNKSNEDQSMGNWQIKRQNGDDPLLTYRFPPKFTLKAGQVVTIWAAGAGATHSPPTDLVWKAQNTWGCGNSLRTALINSTGEEVAMRKLVRSVTVVEDDEDEDGDDLLHHHHGSHCSSSGDPAEYNLRSRTVLCGTCGQPADKASASGSGAQVGGPISSGSSASSVTVTRSYRSVGGSGGGSFGDNLVTRSYLLGNSSPRTQSPQNC
B4: LA-C661A (protein, UniProt P02545 1-661, looked up, variant C661A)
Prelamin-A/C: B3 Prelamin-A/C with C661A

Legend:
[1] = Plasma protein binding, rat; type: in vitro ADME
Protocol: (§1) At pre-set time-points, blood concentration of JH4 was determined by LC-MS/MS analysis[22],[23]. Other chemicals were also tested using similar protocol. In vitro ADME studies (plasma protein binding, CYP inhibition, microsomal stability, plasma stability, and hERG inhibition) were performed by New Drug Development Center (Daegu, Korea) using standard protocols[24],[25].

[2] = Plasma protein binding, human; type: in vitro ADME
Protocol: as §1

HEK293 cells [3] = experiment: GFP-tagged protein and H3K9me3 expression in transfected HEK293 cells; type: cell-based; conditions: for GFP relative expression (ratio), Ave: average (Fig S1F); for Relative H3K9me3 expression, Ave: average (Fig S1G); for GFP relative expression (ratio): single replicates (Fig S1F); for Relative H3K9me3 expression: single replicates (Fig S1G); for GFP positive cells in total cells, Ave / GFP positive cells in total cells: transfected cells; for GFP positive cells in total cells, Ave / GFP relative expression in Western Blot, Ave: average (Fig S1D); for GFP positive cells in total cells / GFP relative expression in Western Blot: single replicates (Fig S1D);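 for Relative H3K9me3 expression, Ave: Western blot band quantification of H3K9me3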;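 for Relative H3K9me3 expression: Western blot band quantification of H3K9me3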
Excerpt: (§2) GFP tag conjugated EV (GFP-EV), lamin A (GFP-LA), lamin A-C661A (GFP-LA-C661A), progerin (GFP-PG), and progerin-C611A (GFP-PG-C611A) vectors were used. GFP-PG and GFP-LA expression vectors were kindly provided by Misteli T. (National Cancer Institute [NCI], Frederick, MD, USA). GFP-LA-C661A and GFP-PG-C611A expression vectors were created by a single point mutation in CaaX motif. The CSIM sequence of lamin A, or progerin was mutated to ASIM. jetPEI (Polyplus Transfection, NY, USA) was used for transfection of expression vectors. Vectors were mixed with 1.5 μl of jetPEI in 150 mM NaCl solution. The mixture was added to HEK293 cells. After 4 h of incubation, medium was replaced with a new medium supplemented with 10% FBS.
Protein was extracted from cells using a radioimmunoprecipitation assay (RIPA) buffer (50 mM Tris-Cl, pH 7.5, 150 mM NaCl, 1% NP-40, 0.1% SDS, and 10% sodium deoxycholate). Samples were separated by sodium dodecyl sulfate-polyacrylamide gel electrophoresis (SDS-PAGE) and transferred to polyvinylidene difluoride (PVDF) membranes. Blotted membranes were blocked with 3% skimmed milk in TBS-T buffer (20 mM Tris pH 7.6, 150 mM NaCl, and 0.05% Tween 20) for 1 h followed by incubation with specific primary antibodies. Horseradish peroxidase (HRP)-conjugated goat anti-mouse, goat anti-rabbit, and mouse anti-goat IgG antibodies (Pierce, Thermo Fisher Scientific, Inc., Rockford, IL, USA) were used as secondary antibodies. Peroxidase activity was detected by chemiluminescence using an ECL kit (Intron, Seoul, Korea) following the manufacturer’s instructions. Bands were quantified using Image J software (National Institute of Health, NIH).
(§3) Fig. S1. Generation of point mutation in CaaX motif of lamin A and progerin for blocking farnesylation.
(§4) A. Sequence of expression vector encoding LA-C661A was created by single point mutation in CaaX motif.
WT-LA with CSIM sequence was mutated to ASIM. B. Sequence of expression vector encoding progerin-C611A with a single point mutation in CaaX motif. Progerin with CSIM sequence was mutated to ASIM.
C. Transient transfection of HEK293 cells with LA-C661A or PG-C611A seems to be indistinguishable from that of authentic WT-LA, or progerin. D. Measurement of proteins (GFP-LA, GFP-LA-C661A, GFP-PG, and GFP-PG-C611A) expression by counting of GFP-positive cells and western blot analysis. The blue […]
fluorescence images were randomly selected and the number of GFP expressing cells were calculated. The […]
experiment; two-tailed Student’s t-test), N.S: not significant. Quantification of western blot by Ima ge J software (National Institute of Health, NIH). […]
Quantification of GFP -tagged expression vector encoding e mpty (EV), wild-type lamin A (WT-LA), lamin A-C661A (LA-C661A), progerin, or progerin- C611A. Blots of GFP expression were quantified using Image J software. (n = 3 independent experiment; two- tailed Student’s t -test), N.S: not significant. G.
Quantification of H3K9me3 expression. […]

HEK293 cells [4] = experiment: Nuclear deformation in GFP-positive HEK293 cells transfected with lamin A / progerin vectors; type: cell-based; conditions: for % of deformed nuclei in GFP positive cells, Ave: average (Fig S1E); for % of deformed nuclei in GFP positive cells: single replicates (Fig S1E)
Excerpt: as §2
For nuclear deformation cell counting, immunofluorescence staining was performed with lamin A or progerin antibodies. After staining, abnormal nuclear membrane was counted in randomly selected fields and expressed as percentages or actual numbers of total cells counted. Abnormalities of nuclear membrane were determined based on the following: (1) lamin A/C or progerin lining was extruded or engulfed, (2) having at least one bleb, and (3) irregular contour. Counting of cells with nuclear deformation was performed by three independent observers who were blinded to chemical treatment group. To analyze histone H3K9me3 intensity or expression, images were quantified using “color histogram” function of Image J software (National Institute of Health, NIH). Fluorescence intensities were subtracted by background signals.
as §3, §4
WT-LA with CSIM sequence was mutated to ASIM. B. Sequence of expression vector encoding progerin-
C611A with a single point mutation in CaaX motif. Progerin with CSIM sequence was mutated to ASIM. […]
D. Measurement of proteins (GFP-LA, GFP-LA-C661A, GFP- […]
Quantification of western blot by Ima ge J
software (National Institute of Health, NIH). E. Quantification of nuclear deformation in GFP positive
HEK293 cells. At least 100 cells/sample/experiment were counted by two independent researchers. The
statistical significance was analyzed by Student’s t -test. **p < 0.001, *p < 0.05, N.S: not significant. F. […]

Molecule | fraction unbound [1] | Plasma protein binding [2] | fraction unbound ([2]; human, plasma) | GFP relative expression (ratio), Ave (HEK293 cells [3]) | Relative H3K9me3 expression, Ave (HEK293 cells [3]) | GFP relative expression (ratio) (HEK293 cells [3]) | Relative H3K9me3 expression (HEK293 cells [3]) | GFP positive cells in total cells, Ave (HEK293 cells [3]) | GFP positive cells in total cells (HEK293 cells [3]) | % of deformed nuclei in GFP positive cells, Ave (HEK293 cells [4]) | % of deformed nuclei in GFP positive cells (HEK293 cells [4]) | GFP relative expression in Western Blot, Ave (HEK293 cells [3]) | GFP relative expression in Western Blot (HEK293 cells [3])
C[C@@H]1C[C@H]2[C@@H]3CCC4=CC(=O)C=C[C@]4(C)[C@@]3(F)[C@@H](O)C[C@]2(C)[C@@]1(O)C(=O)CO [Dexamethasone] | 0.156 | 62.1 % Bound | 0.345 |  |  |  |  |  |  |  |  |  | 
B1 |  |  |  | 0.82 | 2.153 | 0.9957 and 0.6855 and 0.7789 | 2.22 and 2.38 and 1.86 | 0.7166 | 0.624 (2×) and 0.546 and 0.585 and 0.819 and 0.897 and 0.78 and 0.858 | 97.7143% | 95% and 100% and 96% and 98% |  | 
B2 |  |  |  |  |  |  |  |  |  | 7% | 6% and 8% and 4% and 9% and 12% |  | 
B3 |  |  |  | 0.7757 | 4.873 | 0.8616 and 0.6545 and 0.811 | 5.1 and 4.62 and 4.9 | 0.7312 | 0.897 and 0.585 and 0.741 (2×) and 0.546 and 0.819 (2×) and 0.702 |  |  | 1.171 | 1.2 and 1.286 and 1.029
B4 |  |  |  | 0.7753 | 4.563 | 0.9644 and 0.614 and 0.7475 | 5.03 and 4.5 and 4.16 | 0.7264 | 0.819 and 0.936 and 0.741 (2×) and 0.546 and 0.585 and 0.78 and 0.663 | 7.286% | 8% and 6% and 10% and 5% and 9% | 1.219 | 1.3 and 1.171 and 1.186
